Source: PMC12305020

Biological target: Tom20 (Chaetomium thermophilum) (Chaetomium thermophilum)
Assay: cryo-EM structure; TOM complex purified by Tom22-FLAG in GDN, with or without pALDH (maps showed no differences); core 2.7 Å and holo 3.2 Å (pALDH-incubated), core 3.2 Å and holo 3.8 Å (preprotein-free), C2 symmetry imposed

stoichiometry N: 2
Substance: Tom20 (Chaetomium thermophilum) (receptor)
